B1: MIA2 (parent)
chain: NSISSDKEATVPCTEILTEKKDTI

Variants of: B1
Assay: protein stability index of a GFP-peptide fusion (GPS, HEK-293T) (PSI 1-6); higher = more stable
Conditions: c terminus: a fixed tail appended
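Further: lentivirally expressed fusions sorted by FACS into six bins by GFP to DsRed ratio, PSI derived from sequencing read proportions per bin multiplied by bin number.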

Row | Variant | protein stability index
1 | NSMSSDKEATVPCTEILTEKKDTI | 5.45
2 | NSFSSDKEATVPCTEILTEKKDTI | 5.38
3 | NSVSSDKEATVPCTEILTEKKDTI | 5.45
4 | NSYSSDKEATVPCTEILTEKKDTI | 5.58
5 | NSLSSDKEATVPCTEILTEKKDTI | 5.02
6 | NSQSSDKEATVPCTEILTEKKDTI | 5.6
7 | NSISSDKEATVPCWEILTEKKDTI | 4.74
8 | NSISSDKEATVPCMEILTEKKDTI | 5.12
9 | NSISSDKEATVPCYEILTEKKDTI | 5.1
10 | NSISSDKEATVPCPEILTEKKDTI | 5.45
11 | NSISSDKEATVPCREILTEKKDTI | 5.33
12 | NSISSDKEATVPCQEILTEKKDTI | 5.13
13 | NSISSDKEATVPCFEILTEKKDTI | 4.93
14 | NSISSDKEATVPCCEILTEKKDTI | 5.39
15 | NSISSDKEMTVPCTEILTEKKDTI | 5.59
16 | NSISSDKEWTVPCTEILTEKKDTI | 4.79
17 | NSISSDKEHTVPCTEILTEKKDTI | 5.32
18 | NSISSDKERTVPCTEILTEKKDTI | 5.23
19 | NSISSDKEFTVPCTEILTEKKDTI | 5.36
20 | NSISSDKEDTVPCTEILTEKKDTI | 5.11
21 | NGISSDKEATVPCTEILTEKKDTI | 5.37
22 | NVISSDKEATVPCTEILTEKKDTI | 5.46
23 | NFISSDKEATVPCTEILTEKKDTI | 5.37
24 | NIISSDKEATVPCTEILTEKKDTI | 5.32

Row | Variant | protein stability index
25 | NCISSDKEATVPCTEILTEKKDTI | 5.27
26 | NEISSDKEATVPCTEILTEKKDTI | 5.67
27 | NWISSDKEATVPCTEILTEKKDTI | 5.05
28 | NYISSDKEATVPCTEILTEKKDTI | 4.49
29 | NPISSDKEATVPCTEILTEKKDTI | 5.31
30 | NRISSDKEATVPCTEILTEKKDTI | 5.26
31 | NAISSDKEATVPCTEILTEKKDTI | 5.52
32 | NLISSDKEATVPCTEILTEKKDTI | 5.37
33 | NSIYSDKEATVPCTEILTEKKDTI | 5.44
34 | NSILSDKEATVPCTEILTEKKDTI | 5.21
35 | NSIQSDKEATVPCTEILTEKKDTI | 5.63
36 | NSIGSDKEATVPCTEILTEKKDTI | 4.98
37 | NSICSDKEATVPCTEILTEKKDTI | 5.67
38 | NSIESDKEATVPCTEILTEKKDTI | 5.68
39 | NSIRSDKEATVPCTEILTEKKDTI | 5.35
40 | NSIASDKEATVPCTEILTEKKDTI | 5.41
41 | NSIMSDKEATVPCTEILTEKKDTI | 5.43
42 | NSITSDKEATVPCTEILTEKKDTI | 5.25
43 | NSISSDKEATVPKTEILTEKKDTI | 5.4
44 | NSISSDKEATVPITEILTEKKDTI | 5.54
45 | NSISSDKEATVPTTEILTEKKDTI | 5.66
46 | NSISSDKEATVPATEILTEKKDTI | 5.27
47 | NSISSDKEATNPCTEILTEKKDTI | 5.49
48 | NSISSDKEATWPCTEILTEKKDTI | 5.22

Row | Variant | protein stability index
49 | NSISSDKEATPPCTEILTEKKDTI | 5.55
50 | NSISSDKEATDPCTEILTEKKDTI | 5.72
51 | NSISSDKEATAPCTEILTEKKDTI | 5.38
52 | NSISSDKEATMPCTEILTEKKDTI | 5.59
53 | NSISSDKEATIPCTEILTEKKDTI | 5.28
54 | NSISSDKEATFPCTEILTEKKDTI | 5.43
55 | NSISSDKEATVPCTEILTEKKATI | 5.35
56 | NSISSDKEATVPCTEILTEKKWTI | 3.49
57 | NSISSDKEATVPCTEILTEKKITI | 4.55
58 | NSISSDKEATVPCTEILTEKKTTI | 5.04
59 | NSISSDKEATVPCTEILTEKMDTI | 5.7
60 | NSISSDKEATVPCTEILTEKCDTI | 5.27
61 | NSISSDKEATVPCTEILTEKEDTI | 5.69
62 | NSISSDKEATVPCTEILTEKHDTI | 5.15
63 | NSISSDKEATVPCTEILTEKIDTI | 5.14
64 | NSISSDKEATVPCTEILTEKTDTI | 5.51
65 | NSISSDKEATVPCTEILTEKYDTI | 4.84
66 | NSISSDKEATVPCTEILTEKNDTI | 5.48
67 | NSISSDKEATVPCTEILTNKKDTI | 5.32
68 | NSISSDKEATVPCTEILTTKKDTI | 5.17
69 | NSISSDKEATVPCTEILTMKKDTI | 5.08
70 | NSISSDKEATVPCTEILTPKKDTI | 5.66
71 | NSISSDKEATVPCTEILTFKKDTI | 4.62
72 | NSISSDKEATVPCTEILTIKKDTI | 4.72

Row | Variant | protein stability index
73 | NSISSDKEATVPCTEILTKKKDTI | 4.93
74 | NSISSDKEATVPCTEILTEKKDTC | 5.68
75 | NSISSDKEATVPCTEILTEKKDTA | 5.66
76 | NSISSDKEATVPCTEILTEKKDTY | 5.36
77 | NSISSDKEATVPCTEILTEKKDTP | 5.66
78 | NSISSDKEATVPCTEILTEKKDTL | 5.32
79 | NSISSDKEATVPCTEILTEKKDTK | 5.35
80 | NSISSDKEATVPCTEILTEKKDDI | 5.17
81 | NSISSDKEATVPCTEILTEKKDCI | 5.46
82 | NSISSDKEATVPCTEILTEKKDEI | 5.61
83 | NSISSDKEATVPCTEILTEKKDPI | 5.65
84 | NSISSDKEATVPCTEILTEKKDQI | 5.55
85 | NSISSDKEATVPCTEILTEKKDMI | 5.33
86 | NSISSDKEATVPCTEILTEKKDII | 5.09
87 | NSISSDKEATVPCTEILTEKKDWI | 4.17
88 | NSISSDKEATVPCTEILTEKKDLI | 5.37
89 | NSISSDKEATVPCTEILTEKKDSI | 5.47
90 | NSISSDKEATVPCTEILTEKKDYI | 5.1
91 | NSISVDKEATVPCTEILTEKKDTI | 5.46
92 | NSISDDKEATVPCTEILTEKKDTI | 5.4
93 | NSISHDKEATVPCTEILTEKKDTI | 5.47
94 | NSISTDKEATVPCTEILTEKKDTI | 5.39
